According to patent US20240199755A1 (KYMAB, published 2024):

Experiments:
BMP-2 [1] = target: T1, BMP-2; test: SPR steady state analysis, BMP-2 immobilised, Tfr2-ECD 10-5000 nM as analyte, 1:1 interaction assumed
T1 construct: The BMP-2 used in the heterotopic ossification model was from Thermo Fisher, and in the co-IP from Peprotech; also called bone morphogenetic protein 2
T1 sequence (P12643 283-396, species assumed, looked up): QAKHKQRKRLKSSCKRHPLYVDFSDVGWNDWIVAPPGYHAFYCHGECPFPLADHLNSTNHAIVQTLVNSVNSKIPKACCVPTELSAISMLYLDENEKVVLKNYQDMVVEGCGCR
Procedure: (§1) The binding analysis was performed at 37° C. at a flow rate of 30 μl/min. Each analyte was diluted in running buffer (HBS-P (pH 7.4), 150 mM NaCl, supplemented with 50 nM FeCl₃). In some experiments, 500 mM NaCl were used to reduce potential non-specific binding. […] Concentration-dependent binding of holo-Tf was performed without intermediate regeneration.
(§2) The kinetic fitting was performed by global fitting using the 1:1 Langmuir binding model (A+B=AB). Steady state analyses were conducted to determine the affinities (Kd). […] Binding and kinetic parameters were evaluated with Biacore™ T200 evaluation software 3.1.

BMP-4 = test: SPR steady state analysis, BMP-4 immobilised, Tfr2-ECD 10-5000 nM as analyte, 1:1 interaction assumed
Procedure: as §1, §2

BMP-2 [2] = target: T1, BMP-2; test: SPR binding level normalised to molecular weight, Tfr2-ECD immobilised; reference holo-Tf
Procedure: All experiments were performed three independent times. FIG. 15a: Quantification of the binding level normalized to the molecular weight. […] FIG. 15b: Binding response of different concentrations of holo-Tf and/or BMP-2. […] (n=4). FIG. 15d: SPR analyses. […] Binding response is relative to BMP-2 alone. […] FIGS. 15b and 15d: One-way ANOVA was used for statistical analysis. […] Two-way ANOVA with Bonferroni post-hoc test was used for statistical analysis. […] All data are presented as mean±SD.

Sequence of BMP-4 (P12644 293-408): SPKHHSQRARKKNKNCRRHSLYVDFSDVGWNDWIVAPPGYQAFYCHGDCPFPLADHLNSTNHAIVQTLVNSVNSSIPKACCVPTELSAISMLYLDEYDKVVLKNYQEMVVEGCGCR

Kd (BMP-2 [1]): 488 nM
Kd (BMP-4): 409 nM
fold binding relative to holo-Tf (BMP-2 [2]): 10 fold
B1: Tfr2 extracellular domain (Tfr2-ECD), murine, aa 103-798, recombinant His-tagged (receptor, not shown: large carriers)
chain: RGSCQACGDSVLVVDEDVNPEDSGRTTLYWSDLQAMFLRFLGEGRMEDTIRLTSLRERVAGSARMATLVQDILDKLSRQKLDHVWTDTHYVGLQFPDPAHANTLHWVDADGSVQEQLPLEDPEVYCPYSATGNATGKLVYAHYGRSEDLQDLKAKGVELAGSLLLVRVGITSFAQKVAVAQDFGAQGVLIYPDPSDFSQDPHKPGLSSHQAVYGHVHLGTGDPYTPGFPSFNQTQFPPVESSGLPSIPAQPISADIADQLLRKLTGPVAPQEWKGHLSGSPYRLGPGPDLRLVVNNHRVSTPISNIFACIEGFAEPDHYVVIGAQRDAWGPGAAKSAVGTAILLELVRTFSSMVSNGFRPRRSLLFISWDGGDFGSVGATEWLEGYLSVLHLKAVVYVSLDNSVLGDGKFHAKTSPLLVSLIENILKQVDSPNHSGQTLYEQVALTHPSWDAEVIQPLPMDSSAYSFTAFAGVPAVEFSFMEDDRVYPFLHTKEDTYENLHKMLRGRLPAVVQAVAQLAGQLLIRLSHDHLLPLDFGRYGDVVLRHIGNLNEFSGDLKERGLTLQWVYSARGDYIRAAEKLRKEIYSSERNDERLMRMYNVRIMRVEFYFLSQYVSPADSPFRHIFLGQGDHTLGALVDHLRMLRADGSGAASSRLTAGLGFQESRFRRQLALLTWTLQGAANALSGDVWNIDNNF
notes: Expressed in Sf9 insect cells (pOCC211-Tfr2-ECD) and purified on HisTrap; Experiments were repeated with a commercial Tfr2-ECD from Cusabio (aa 103-798); also called His-Tfr2-ECD; His-MBP-c3-Tfr2-ECD
